According to PMC2254190, “T Cell Receptor Engagement Triggers Its CD3ε and CD3ζ Subunits to Adopt a Compact, Locked Conformation” (PLoS ONE, 2008):

Target: SH3.1 domain of Nck (NMR work, in preparation) (UniProt P16333 2-61)
Test: not stated; affinity told in the discussion without method

- Kd: ~100 nM
B1: CD3ε polypeptide (NMR work, in preparation) (domain or fragment)
chain: KNRKAKAKPVTRGAGAGGRQRGQNKERPPPVPNPDYEPIRKGQRDLYSGLNQRRI
modifications: The construct is not described (unpublished NMR work, 'in preparation'). The whole cytoplasmic tail, by UniProt topology, is used because it holds the PPS with its upstream and downstream charged …
